Assay results reported in paper PMC3323551.

Legend:
[1] = target: T1, His-OpaR (Vibrio parahaemolyticus RIMD 2210633) (UniProt Q79YV4); assay: DNase I footprinting; conditions: 1 mM MgCl2, 0.5 mM EDTA, 0.5 mM DTT, 50 mM NaCl, 10 mM Tris-HCl pH 7.5, 0.05 mg/ml poly(dI-dC), room temperature, 30 min; footprinting same buffer, then …
T1 sequence: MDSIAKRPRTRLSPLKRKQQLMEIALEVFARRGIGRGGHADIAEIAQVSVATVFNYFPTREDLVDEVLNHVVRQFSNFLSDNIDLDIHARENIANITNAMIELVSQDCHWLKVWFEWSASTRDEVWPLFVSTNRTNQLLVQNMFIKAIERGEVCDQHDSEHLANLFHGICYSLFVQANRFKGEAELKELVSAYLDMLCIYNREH

[2] = target: T1, His-OpaR (Vibrio parahaemolyticus RIMD 2210633); assay: EMSA; conditions: 1 mM MgCl2, 0.5 mM EDTA, 0.5 mM DTT, 50 mM NaCl, 10 mM Tris-HCl pH 7.5, 0.05 mg/ml poly(dI-dC), room temperature, 30 min; footprinting same buffer, then …

Row | Sequence | binding [1] | binding [2]
1 | AGTGGGTTGAAAGTCACATCCTTTTGCGGAAAATTCTTGGGAGCGCTGCCAAATTTTCGAAAGTTTACAGCAAAACTTATCAATAATAATGACATTACTGTCTATAAATTATCCATCAGATGTTGACCTTGTGCATATGCACCATTACACTCATCACTGCTTAAAGCAATTATTAAAATAATCAATTAGGGGGTTACCCCCAACAACAACTCAAATGGCAAGGAAAATGGATATGGACTCAATTGCAAAGAGACCTAGAACTAGGC (double strand) [opaR promoter footprinting fragment] | binds | 
2 | AACCGTGAAATCCATTTACTGAGGTATTTTTCCTCATTAATTAGCAGTATAGGGTAAAAATATGAAAGCTAATGGATAATCATAAAGTAGTAGTTGGTTTTTTGCTGAGAAAGTGATTAGTAGCAATGTAACAAGTGGCATATTTGCATGCTATTGCATTTTGCAAATGCAATTTGCGAAAGTGCTGGTTAATAATGCGTCG (double strand) [qrr4 promoter fragment] | binds | binds
3 | AACTTCCAACCACATAATTGCGCAGCAAATAACCAGACATTTACACTACAAAAAACCCATAAAATACCAACAAATTAGAATTATTAACTACAAAATAACTCTATTGAGTATTATGTTAGTTTTTCAGGGTAATTTTGTCCTAGTATTCCACTTCATGCTTATTATTTATATACTACTTGCCTGCTGAGAGCTCATAAATCCAATCATACCTGCTCCAGCC (double strand) [aphA promoter fragment] | binds | binds
4 | AGTGGTTGCTTATGAATCAATCCCAGGAAAAGGCGAGAACAGCGAACCTTCAACTCGTTAACATTTTATTTTCATTTACATTTTGACTAACTCAATTGTTAATAAATTACCTAAATTGCATTTTGAAATTGCAGAATGCAATTAAGTTTTGTTTTTTGCAAAAATTTATATAGGCAATATCAGTTTATATGAGATCTTGTGCCCAAAAATAAAGCTTTGAAAATTGGCATGATTAATGCATAATACTTCTCGACC (double strand) [qrr2 promoter fragment] | binds | binds
5 | GGATAAGTTCAAATTGGATCCAGCCTTAGCAGGCTCGGTTATTCTAACGACAGTGACAGATGTGGTTGGTTTTTTCGCCTTTTTGGGAACGGCGAGTTTAGTCATGCTCTAAAAAGTCCACTGTTTATTAATCAATCATTAGCATAATAGAGACAAATTGCATAACGCACTTGCAAATTGCAAAAACATTCAAAGTTTAAGCAACGTATGTCACAGAAACCAC (double strand) [qrr3 promoter fragment] | binds | binds
